Results from paper PMC9267027.
Values joined by “and” are separate entries in the source; they are usually repeats but may differ in a detail not shown here. Identical values can stand only once.

Target: Amy117, neopullulanase (NPase) from B. pseudofirmus 703 (B. pseudofirmus 703)
Assay: AUC; sedimentation velocity, 50 mM Na2HPO4-NaH2PO4 buffer pH 7.0, 20 °C, 38,000 rpm, absorbance at 280 nm, c(s) model in SEDFIT; oligomeric state

## Amy117, neopullulanase (NPase) from B. pseudofirmus 703 (enzyme)
  percent as a tetramer: 3.3%
  percent in the dimerized form: 68.7%
  percent in the monomeric form: 24.3%
  stoichiometry N: 2 and 4
